In US20250154231A1:
Like-named read-outs stand apart in the source and are kept apart here.

Tests used:
Assay in all cases: cell-based or functional assay
[1] = target: SARS-CoV-2 spike (S) protein, Omicron BA.2.75 (SARS-CoV-2) (UniProt P0DTC2)
[2] = target: SARS-CoV-2 spike (S) protein, Omicron BA.2 (SARS-CoV-2) (UniProt P0DTC2)
[3] = target: SARS-CoV-2 Omicron BA.1 spike (S) protein of the live isolate (SARS-CoV-2) (UniProt P0DTC2)
[4] = target: SARS-CoV-2 Delta spike (S) protein (SARS-CoV-2) (UniProt P0DTC2)
[5] = target: SARS-CoV-2 spike (S) protein, Victoria strain (SARS-CoV-2) (UniProt P0DTC2)
[6] = target: SARS-CoV-2 Omicron BA.4/5 spike (S) protein (SARS-CoV-2) (UniProt P0DTC2)
[7] = target: SARS-CoV-2 Omicron BA.2 spike (S) protein, pseudovirus construct (SARS-CoV-2) (UniProt P0DTC2)
[8] = target: SARS-CoV-2 Omicron BA.1 spike (S) protein, pseudovirus construct (SARS-CoV-2) (UniProt P0DTC2)
[9] = target: SARS-CoV-2 Alpha spike (S) protein (SARS-CoV-2) (UniProt P0DTC2)
[10] = target: SARS-CoV-2 Omicron BA.3 spike (S) protein (SARS-CoV-2) (UniProt P0DTC2)
[11] = target: SARS-CoV-2 spike (S) protein, Omicron BA.4/5 (SARS-CoV-2) (UniProt P0DTC2)
[12] = target: SARS-CoV-2 Gamma spike (S) protein (SARS-CoV-2) (UniProt P0DTC2)
[13] = target: SARS-CoV-2 Omicron BA.3 spike (S) protein, pseudovirus construct (SARS-CoV-2) (UniProt P0DTC2)
[14] = target: SARS-CoV-2 Omicron (BA.1) spike (S) protein, live virus isolate (SARS-CoV-2) (UniProt P0DTC2)
[15] = target: SARS-CoV-2 Alpha (B.1.1.7) spike (S) protein (SARS-CoV-2) (UniProt P0DTC2)
[16] = target: SARS-CoV-2 Omicron BA.2 spike (S) protein (SARS-CoV-2) (UniProt P0DTC2)
[17] = target: SARS-CoV-2 Victoria spike (S) protein (SARS-CoV-2) (UniProt P0DTC2)
[18] = target: SARS-CoV-2 spike (S) protein, Omicron BA.2.75 (SARS-CoV-2) (UniProt P0DTC2); remark: listed apart in the source
[19] = target: SARS-CoV-2 Omicron BA.1.1 spike (S) protein, pseudovirus construct (SARS-CoV-2) (UniProt P0DTC2)
[20] = target: SARS-CoV-2 Omicron BA.1 spike (S) protein of the pseudovirus (SARS-CoV-2) (UniProt P0DTC2)
[21] = target: SARS-CoV-2 Beta (B.1.351) spike (S) protein (SARS-CoV-2) (UniProt P0DTC2)
[22] = target: SARS-CoV-2 Beta spike (S) protein (SARS-CoV-2) (UniProt P0DTC2)
[23] = target: SARS-CoV-2 Gamma (P.1) spike (S) protein (SARS-CoV-2) (UniProt P0DTC2)
[24] = target: SARS-CoV-2 spike (S) protein, Omicron BA.3 (SARS-CoV-2) (UniProt P0DTC2)
[25] = target: SARS-CoV-2 spike (S) protein, Omicron BA.1 (SARS-CoV-2) (UniProt P0DTC2)
[26] = target: SARS-CoV-2 spike (S) protein, Omicron BA.1.1 (SARS-CoV-2) (UniProt P0DTC2)
[27] = target: SARS-CoV-2 spike (S) protein, Omicron BA.2 (SARS-CoV-2) (UniProt P0DTC2); remark: listed apart in the source
[28] = target: SARS-CoV-2 Omicron BA.1.1 spike (S) protein (SARS-CoV-2) (UniProt P0DTC2)
[29] = target: SARS-CoV-2 spike (S) protein, Omicron BJ.1 (SARS-CoV-2) (UniProt P0DTC2)
[30] = target: SARS-CoV-2 spike (S) protein, Victoria strain (SARS-CoV-2) (UniProt P0DTC2); remark: listed apart in the source
[31] = target: SARS-CoV-2 spike (S) protein, Omicron BA.4/5 (SARS-CoV-2) (UniProt P0DTC2); remark: listed apart in the source
[32] = target: SARS-CoV-2 spike (S) protein, Omicron BA.4.6 (SARS-CoV-2) (UniProt P0DTC2)
[33] = target: SARS-CoV-2 spike (S) protein, Omicron BA.2.75.2 (SARS-CoV-2) (UniProt P0DTC2)
[34] = target: SARS-CoV-2 spike (S) protein, Omicron BA.2.75 (SARS-CoV-2) (UniProt P0DTC2); remark: listed apart in the source
[35] = target: SARS-CoV-2 spike (S) protein, Omicron BA.2 (SARS-CoV-2) (UniProt P0DTC2); remark: listed apart in the source
[36] = target: SARS-CoV-2 spike (S) protein, Omicron BA.2.3.20 (SARS-CoV-2) (UniProt P0DTC2)

Chain of Omi-42 (antibody) (VH): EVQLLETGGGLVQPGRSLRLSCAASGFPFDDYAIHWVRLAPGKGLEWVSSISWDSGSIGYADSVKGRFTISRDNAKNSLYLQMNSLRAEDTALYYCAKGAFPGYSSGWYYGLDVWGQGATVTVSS
Chain of Omi-42 (antibody) (VL): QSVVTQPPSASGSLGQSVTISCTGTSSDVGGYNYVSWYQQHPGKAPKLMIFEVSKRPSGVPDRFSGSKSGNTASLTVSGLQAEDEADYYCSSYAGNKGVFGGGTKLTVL
Chain of Omi-29 (antibody) (VH): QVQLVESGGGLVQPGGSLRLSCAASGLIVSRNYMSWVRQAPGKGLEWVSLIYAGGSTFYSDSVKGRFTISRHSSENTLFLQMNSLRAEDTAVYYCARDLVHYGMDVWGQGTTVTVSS
Chain of Omi-29 (antibody) (VL): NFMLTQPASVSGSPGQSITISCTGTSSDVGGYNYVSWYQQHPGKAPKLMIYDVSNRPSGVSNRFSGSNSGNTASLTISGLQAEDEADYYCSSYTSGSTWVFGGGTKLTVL

Omi-29 (antibody) showed a pseudovirus neutralisation IC50 [1] greater than 10 µg/mL, a pseudovirus neutralisation IC50 [2] of 0.056 µg/mL and an IC50, authentic virus neutralization [3] of 0.036 µg/mL. For the same substance, the Authentic virus-IC50 [4] was 0.029 µg/mL, the IC50, authentic virus neutralization [4] was 0.029 µg/mL and the pseudovirus neutralisation IC50 [5] was 0.014 µg/mL. It also gave an IC50, pseudovirus neutralization [6] of 0.396 µg/mL, a Pseudovirus - IC50 [7] of 0.056 µg/mL and a Pseudovirus - IC50 [8] of 0.017 µg/mL. It also gave an IC50, authentic virus neutralization [9] of 0.066 µg/mL, an IC50, pseudovirus neutralization [10] of 0.064 µg/mL and a pseudovirus neutralisation IC50 [11] of 0.396 µg/mL. It also gave an IC50, authentic virus neutralization [12] of 0.04 µg/mL, a Pseudovirus - IC50 [13] of 0.064 µg/mL and an Authentic virus-IC50 [14] of 0.036 µg/mL. The Authentic virus-IC50 [15] was 0.066 µg/mL, the IC50, authentic virus neutralization [16] was 0.192 µg/mL and the IC50, pseudovirus neutralization [16] was 0.056 µg/mL. For the same substance, the Authentic virus-IC50 [17] was 0.044 µg/mL, the IC50, authentic virus neutralization [17] was 0.044 µg/mL and the IC50, pseudovirus neutralization [17] was 0.014 µg/mL. It also gave a Pseudovirus - IC50 [17] of 0.014 µg/mL, a pseudovirus neutralisation IC50 [18] greater than 10 µg/mL and a Pseudovirus - IC50 [19] of 0.016 µg/mL. The IC50, pseudovirus neutralization [20] was 0.017 µg/mL, the Authentic virus-IC50 [21] was 0.048 µg/mL and the IC50, authentic virus neutralization [22] was 0.048 µg/mL. The Authentic virus-IC50 [23] was 0.04 µg/mL, the pseudovirus neutralisation IC50 [24] was 0.064 µg/mL and the pseudovirus neutralisation IC50 [25] was 0.017 µg/mL. It also gave a pseudovirus neutralisation IC50 [26] of 0.016 µg/mL, a pseudovirus neutralisation IC50 [27] of 0.056 µg/mL and an IC50, authentic virus neutralization [28] of 0.052 µg/mL. It also gave an IC50, pseudovirus neutralization [28] of 0.016 µg/mL, an IC50, pseudoviral neutralization [29] of 0.025 µg/mL and an IC50, pseudoviral neutralization [30] of 0.014 µg/mL. It also gave an IC50, pseudoviral neutralization [31] of 0.396 µg/mL, an IC50, pseudoviral neutralization [32] of 0.17 µg/mL and an IC50, pseudoviral neutralization [33] greater than 10 µg/mL. The IC50, pseudoviral neutralization [34] was greater than 10 µg/mL, the IC50, pseudoviral neutralization [35] was 0.056 µg/mL and the IC50, pseudoviral neutralization [36] was greater than 10 µg/mL.

In the case of Omi-42 (antibody), the pseudovirus neutralisation IC50 [1] is reported as 0.003 µg/mL, the pseudovirus neutralisation IC50 [2] is reported as 0.021 µg/mL and the IC50, authentic virus neutralization [3] is reported as 0.014 µg/mL. It also gave an Authentic virus-IC50 [4] of 0.019 µg/mL, an IC50, authentic virus neutralization [4] of 0.019 µg/mL and a pseudovirus neutralisation IC50 [5] of 0.013 µg/mL. The IC50, pseudovirus neutralization [6] was 0.013 µg/mL, the Pseudovirus - IC50 [7] was 0.021 µg/mL and the Pseudovirus - IC50 [8] was 0.007 µg/mL. The IC50, authentic virus neutralization [9] was 0.024 µg/mL, the IC50, pseudovirus neutralization [10] was 0.025 µg/mL and the pseudovirus neutralisation IC50 [11] was 0.013 µg/mL. The IC50, authentic virus neutralization [12] was 0.013 µg/mL, the Pseudovirus - IC50 [13] was 0.025 µg/mL and the Authentic virus-IC50 [14] was 0.014 µg/mL. It also gave an Authentic virus-IC50 [15] of 0.024 µg/mL, an IC50, authentic virus neutralization [16] of 0.031 µg/mL and an IC50, pseudovirus neutralization [16] of 0.021 µg/mL. For the same substance, the Authentic virus-IC50 [17] was 0.016 µg/mL, the IC50, authentic virus neutralization [17] was 0.016 µg/mL and the IC50, pseudovirus neutralization [17] was 0.013 µg/mL. The Pseudovirus - IC50 [17] was 0.013 µg/mL, the pseudovirus neutralisation IC50 [18] was 0.003 µg/mL and the Pseudovirus - IC50 [19] was 0.006 µg/mL. It also gave an IC50, pseudovirus neutralization [20] of 0.007 µg/mL, an Authentic virus-IC50 [21] of 0.011 µg/mL and an IC50, authentic virus neutralization [22] of 0.011 µg/mL. For the same substance, the Authentic virus-IC50 [23] was 0.013 µg/mL, the pseudovirus neutralisation IC50 [24] was 0.025 µg/mL and the pseudovirus neutralisation IC50 [25] was 0.007 µg/mL. It also gave a pseudovirus neutralisation IC50 [26] of 0.006 µg/mL, a pseudovirus neutralisation IC50 [27] of 0.021 µg/mL and an IC50, authentic virus neutralization [28] of 0.017 µg/mL. The IC50, pseudovirus neutralization [28] was 0.006 µg/mL, the IC50, pseudoviral neutralization [29] was 0.01 µg/mL and the IC50, pseudoviral neutralization [30] was 0.013 µg/mL. For the same substance, the IC50, pseudoviral neutralization [31] was 0.013 µg/mL, the IC50, pseudoviral neutralization [32] was 0.01 µg/mL and the IC50, pseudoviral neutralization [33] was 0.011 µg/mL. The IC50, pseudoviral neutralization [34] was 0.003 µg/mL, the IC50, pseudoviral neutralization [35] was 0.021 µg/mL and the IC50, pseudoviral neutralization [36] was 0.018 µg/mL.
